Columns and labels:
Format in all cases: biochemical
[1] = HTP-analysis of yeast culture supernatants, no challenge (MUGal hydrolysis); conditions: activity of the variant/activity of WT GLA (SEQ ID NO: 5), yeast supernatant
Experimental: (§1) Yeast (INVSc1) cells transformed with vectors expressing GLA and GLA variants using the lithium acetate method were selected on SD-Ura agar plates. After 72 h incubation at 30° C. colonies were placed into the wells of Axygen® 1.1 ml 96-well deep well plates filled with 200 μl/well SD-Ura broth (2 g/L SD-Ura, 6.8 g/L yeast nitrogen base without amino acids [Sigma Aldrich]), 3.06 g/L sodium dihydrogen phosphate, 0.804 g/L disodium hydrogen phosphate, pH 6.0 supplemented with 6% glucose. The cells were allowed to grow for 20-24 hours in a Kuhner shaker (250 rpm, 30° C., and 85% relative humidity). Overnight culture samples (20 μL) were transferred into Corning Costar® 96-well deep plates filled with 380 µL of SD-ura broth supplemented with 2% glucose. The plates were incubated for 66-84 h in a Kuhner shaker (250 rpm, 30° C., and 85% relative humidity). The cells were then pelleted (4000 rpm×20 min), and the supernatants isolated and stored at 4° C. prior to analysis.
GLA variant activity was determined by measuring the hydrolysis of 4-methylumbelliferyl α-D-galactopyranoside (MUGal). For this assay, 5-50 μL, of yeast culture supernatant produced as described above, was mixed with 0-45 μL, of McIlvaine Buffer (McIlvaine, J. Biol. Chem., 49:183-186 [1921]), pH 4.8 and 50 μL of 2 mM MUGal in 50 mM citrate, 200 mM KCl, pH 4.6 in a 96-well, black, opaque bottom plate. The reactions were mixed briefly and incubated at 37° C. for 30-180 minutes, prior to quenching with 100 μL, of 1 M sodium carbonate. Hydrolysis was analyzed using a SpectraMax® M2 microplate reader monitoring fluorescence (Ex. 355 nm, Em. 448 nm).

[2] = HTP-analysis of supernatants pretreated with acid (MUGal hydrolysis); conditions: challenge at pH 4.3; activity of the variant/activity of WT GLA (SEQ ID NO: 5); yeast supernatant
Experimental: as §1
GLA variants were challenged with acidic buffer to simulate the extreme pHs that the variants may encounter in lysosomes. First, 50 μL of yeast culture supernatant and 50 uL of McIlvaine buffer (pH 3.3-4.3) were added to the wells of a 96-well round bottom plate. The plates were sealed with a PlateLoc Thermal Microplate Sealer (Agilent) and incubated at 37° C. for 1-3 h. For the assay, 10-50 uL of acid-pH-challenged sample was mixed with 0-40 μL, of McIlvaine buffer pH 4.8, 25 μL, of 1 M citrate buffer pH 4.3 and 25 μL, of 4 mM MUGal in McIlvaine buffer pH 4.8. The reactions were mixed briefly and incubated at 37° C. for 30-180 minutes, prior to quenching with 100 μL, of 1 M sodium carbonate. Hydrolysis was analyzed using a SpectraMax® M2 microplate reader monitoring fluorescence (Ex. 355 nm, Em. 448 nm).

[3] = HTP-analysis of supernatants pretreated with base (MUGal hydrolysis); conditions: challenge at pH 7.0; activity of the variant/activity of WT GLA (SEQ ID NO: 5); yeast supernatant
Experimental: as §1
GLA variants were challenged with basic (neutral) buffer to simulate the pHs that the variants encounter in the blood following their administration to a patient. First, 50 μL of yeast culture supernatant and 50 uL of McIlvaine buffer (pH 7.0-8.2) or 200 mM sodium bicarbonate (pH 9.1-9.7) were added to the wells of a 96-well round bottom plate. The plates were sealed and incubated at 37° C. for 1-18 h. For the assay, 10-50 μL of basic-pH-challenged sample was mixed with 0-40 μL, of McIlvaine buffer pH 4.8, 25 μL, of 1 M citrate buffer pH 4.3 and 25 μL, of 4 mM MUGal in McIlvaine buffer pH 4.8. The reactions were mixed briefly and incubated at 37° C. for 30-180 minutes, prior to quenching with 100 μL, of 1 M sodium carbonate. Hydrolysis was analyzed using a SpectraMax® M2 microplate reader monitoring fluorescence (Ex. 355 nm, Em. 448 nm).

Molecule	Relative Activity of GLA Variants After No Challenge (NC) [1]	Relative Activity of GLA Variants After Challenge at pH 4.3 [2]	Relative Activity of GLA Variants After Challenge at pH 7.0 [3]
3 (protein, Synthetic Polypeptide sequence of Variant No. 3 of mature Human GLA) LDNGLARTPTMGWLHWERFMCNLDCQEEPDSCISEKLFMEMADLMVSDGWKDAGYEYLCIDDCWMAPQRDSEGRLQADPQRFPHGIRQLANYVHSKGLKLGIYADVGNKTCAGFPGSFGYYDIDAQTFADWGVDLLKFDGCYCDSLENLADGYKHMSLALNRTGRSIVYSCEWPLYMWPFQKPNYTEIRQYCNHWRNFADIDDSWKSIKSILDWTSFNQERIVDVAGPGGWNDPDMLVIGNFGLSWNQQVTQMALWAIMAAPLFMSNDLRHISPQAKALLQDKDVIAINQDPLGKQGYQLRQGDNFEVWERPLSGLAWAVAMINRQEIGGPRSYTIAVASLGKGVACNPACFITQLLPVKRKLGFYEWTSRLRSHINPTGTVLLQLENTMQMSLKDLL	+ (+ = 0.5 to 1.5 relative activity over WT GLA (SEQ ID NO: 5))	+ (+ = 0.5 to 1.5 relative activity over WT GLA (SEQ ID NO: 5))	+ (+ = 0.5 to 1.5 relative activity over WT GLA (SEQ ID NO: 5))
8 (protein, Synthetic Polypeptide sequence of Variant No. 8 of mature Human GLA) LDNGLARTPTMGWLHWERFMCNLDCQEEPDSCISEKLFMEMADLMVSDGWKDAGYEYLCIDDCWMAPQRDSEGRLQADPQRFPHGIRQLANYVHSKGLKLGIYADVGNKTCAGFPGSFGYYDIDAQTFADWGVDLLKFDGCYCDSLENLADGYKHMSLALNRTGRSIVYSCEWPLYMWPFQKPNYTEIRQYCNHWRNFADIDDSWKSIKSILDWTSFNQERIVDVAGPGGWNDPDMLVIGNFGLSWDQQVTQMALWAIMAAPLFMSNDLRHISPQAKALLQDKDVIAINQDPLGKQGYQLRKGDNFEVWERPLSGLAWAVAMINRQEIGGPRSYTIAVASLGKGVACNPACFITQLLPVKRKLGFYEWTSRLKSHINPTGTVLLQLENTMQMSLKDLL	++ (++ = >1.5 to 2.5 relative activity over WT GLA (SEQ ID NO: 5))	+++ (+++ = >2.5 relative activity over WT GLA (SEQ ID NO: 5))	+++ (+++ = >2.5 relative activity over WT GLA (SEQ ID NO: 5))
6 (protein, Synthetic Polypeptide sequence of Variant No. 6 of mature Human GLA) LDNGLARTPTMGWLHWERFMCNLDCQEEPDSCISEKLFMEMADLMVSDGWKDAGYEYLCIDDCWMAPQRDSEGRLQADPQRFPHGIRQLANYVHSKGLKLGIYADVGNKTCAGFPGSFGYYDIDAQTFADWGVDLLKFDGCYCDSLENLADGYKHMSLALNRTGRSIVYSCEWPLYMWPFQKPNYTEIRQYCNHWRNFADIDDSWKSVKSILDWTSFNQERIVDVAGPGGWNDPDMLVIGNFGLSWNQQVTQMALWAIMAAPLFMSNDLRHISPQAKALLQDKDVIAINQDPLGKQGYQLRQGDNFEVWERPLSGLAWAVAMINRQEIGGPRSYTIAVASLGKGVACNPACFITQLLPVKRKLGFYEWTSRLKSHVNPTGTVLLQLENTMQMSLKDLL	+ (+ = 0.5 to 1.5 relative activity over WT GLA (SEQ ID NO: 5))	+++ (+++ = >2.5 relative activity over WT GLA (SEQ ID NO: 5))	+ (+ = 0.5 to 1.5 relative activity over WT GLA (SEQ ID NO: 5))
7 (protein, Synthetic Polypeptide sequence of Variant No. 7 of mature Human GLA) LDNGLARTPTMGWLHWERFMCNLDCQEEPDSCISEKLFMEMADLMVSDGWKDAGYEYLCIDDCWMAPQRDSEGRLQADPQRFPHGIRQLANYVHSKGLKLGIYADVGNKTCAGFPGSFGYYDIDAQTFADWGVDLLKFDGCYCDSLENLADGYKHMSLALNRTGRSIVYSCEWPLYMWPFQKPNYTEIRQYCNHWRNFADIDDSWKSIKSILDWTSFNQERIVDVAGPGGWNDPDMLVIGNFGLSWDQQVTQMALWAIMAAPLFMSNDLRHISPQAKALLQDKDVIAINQDPLGKQGYRLRKGDNFEVWERPLSGLAWAVAMINRQEIGGPRSYTIAVASLGKGVACNPACFITQLLPVKRKLGFYEWTSRLKSHVNPTGTVLLQLENTMQMSLKDLL	+ (+ = 0.5 to 1.5 relative activity over WT GLA (SEQ ID NO: 5))	++ (++ = >1.5 to 2.5 relative activity over WT GLA (SEQ ID NO: 5))	+ (+ = 0.5 to 1.5 relative activity over WT GLA (SEQ ID NO: 5))
4 (protein, Synthetic Polypeptide sequence of Variant No. 4 of mature Human GLA) LDNGLARTPTMGWLHWERFMCNLDCQEEPDSCISEKLFMEMADLMVSDGWKDAGYEYLCIDDCWMAPQRDSEGRLQADPQRFPHGIRQLANYVHSKGLKLGIYADVGNKTCAGFPGSFGYYDIDAQTFADWGVDLLKFDGCYCDSLENLADGYKHMSLALNRTGRSIVYSCEWPLYMWPFQKPNYTEIRQYCNHWRNFADIDDSWKSVKSILDWTSFNQERIVDVAGPGGWNDPDMLVIGNFGLSWDQQVTQMALWAIMAAPLFMSNDLRHISPQAKALLQDKDVIAINQDPLGKQGYRLRKGDNFEVWERPLSGLAWAVAMINRQEIGGPRSYTIAVASLGKGVACNPACFITQLLPVKRKLGFYEWTSRLKSHVNPTGTVLLQLENTMQMSLKDLL	+ (+ = 0.5 to 1.5 relative activity over WT GLA (SEQ ID NO: 5))	+++ (+++ = >2.5 relative activity over WT GLA (SEQ ID NO: 5))	+ (+ = 0.5 to 1.5 relative activity over WT GLA (SEQ ID NO: 5))
5 (protein, Synthetic Polypeptide sequence of Variant No. 5 of mature Human GLA) LDNGLARTPTMGWLHWERFMCNLDCQEEPDSCISEKLFMEMADLMVSDGWKDAGYEYLCIDDCWMAPQRDSEGRLQADPQRFPHGIRQLANYVHSKGLKLGIYADVGNKTCAGFPGSFGYYDIDAQTFADWGVDLLKFDGCYCDSLENLADGYKHMSLALNRTGRSIVYSCEWPLYMWPFQKPNYTEIRQYCNHWRNFADIDDSWKSVKSILDWTSFNQERIVDVAGPGGWNDPDMLVIGNFGLSWNQQVTQMALWAIMAAPLFMSNDLRHISPQAKALLQDKDVIAINQDPLGKQGYQLRQGDNFEVWERPLSGLAWAVAMINRQEIGGPRSYTIAVASLGKGVACNPACFITQLLPVKRKLGFYEWTSRLKSHINPTGTVLLQLENTMQMSLKDLL	++ (++ = >1.5 to 2.5 relative activity over WT GLA (SEQ ID NO: 5))	++ (++ = >1.5 to 2.5 relative activity over WT GLA (SEQ ID NO: 5))	++ (++ = >1.5 to 2.5 relative activity over WT GLA (SEQ ID NO: 5))
